B1: Splicing factor 1 (Homo sapiens), Q15637 (parent)
chain: MATGANATPLDFPSKKRKRSRWNQDTMEQKTVIPGMPTVIPPGLTREQERAYIVQLQIEDLTRKLRTGDLGIPPNPEDRSPSPEPIYNSEGKRLNTREFRTRKKLEEERHNLITEMVALNPDFKPPADYKPPATRVSDKVMIPQDEYPEINFVGLLIGPRGNTLKNIEKECNAKIMIRGKGSVKEGKVGRKDGQMLPGEDEPLHALVTANTMENVKKAVEQIRNILKQGIETPEDQNDLRKMQLRELARLNGTLREDDNRILRPWQSSETRSITNTTVCTKCGGAGHIASDCKFQRPGDPQSAQDKARMDKEYLSLMAELGEAPVPASVGSTSGPATTPLASAPRPAAPANNPPPPSLMSTTQSRPPWMNSGPSESRPYHGMHGGGPGGPGGGPHSFPHPLPSLTGGHGGHPMQHNPNGPPPPWMQPPPPPMNQGPHPPGHHGPPPMDQYLGSTPVGSGVYRLHQGKGMMPPPPMGMMPPPPPPPSGQPPPPPSGPLPPWQQQQQQPPPPPPPSSSMASSTPLPWQQNTTTTTTSAGTGSIPPWQQQQAAAAASPGAPQMQGNPTMVPLPPGVQPPLPPGAPPPPPPPPPGSAGMMYAPPPPPPPPMDPSNFVTMMGMGVAGMPPFGMPPAPPPPPPQN

Variants of: B1
Settings: with U2AF2, P26368
Chain of U2AF2, P26368 (P26368 whole entry): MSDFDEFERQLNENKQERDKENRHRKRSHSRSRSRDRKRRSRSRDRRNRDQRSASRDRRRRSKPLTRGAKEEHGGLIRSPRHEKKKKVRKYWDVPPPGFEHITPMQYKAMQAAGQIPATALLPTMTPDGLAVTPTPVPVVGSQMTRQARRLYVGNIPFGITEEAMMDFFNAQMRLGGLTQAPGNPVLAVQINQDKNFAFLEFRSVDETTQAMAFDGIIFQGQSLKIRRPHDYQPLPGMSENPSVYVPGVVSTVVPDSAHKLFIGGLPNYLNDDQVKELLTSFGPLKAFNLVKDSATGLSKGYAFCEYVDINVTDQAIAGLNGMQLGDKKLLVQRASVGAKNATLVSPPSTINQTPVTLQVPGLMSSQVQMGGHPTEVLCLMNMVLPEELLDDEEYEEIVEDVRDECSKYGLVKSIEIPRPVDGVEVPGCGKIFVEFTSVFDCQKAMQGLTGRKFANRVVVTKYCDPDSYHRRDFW

| Variant | effect of a mutation on the interaction |
| --- | --- |
| R46D | decreasing interaction strength |
| W22A | disrupting interaction strength |

Results, then the variant that gave them:

| effect of a mutation on the interaction | Variant |
| --- | --- |
| decreasing interaction strength | S80A;S82A |
| decreasing interaction strength | R93E;R97E;R100E |
| decreasing interaction strength | I40R;I53R |
